These results are taken from patent US20190359666A1 (ACADEMIA SINICA, published 2019).

T1: nrgbx (UniProt Q02297-6 2-246, limits assumed)
T1 construct: also called neuregulin
T1 sequence (looked up): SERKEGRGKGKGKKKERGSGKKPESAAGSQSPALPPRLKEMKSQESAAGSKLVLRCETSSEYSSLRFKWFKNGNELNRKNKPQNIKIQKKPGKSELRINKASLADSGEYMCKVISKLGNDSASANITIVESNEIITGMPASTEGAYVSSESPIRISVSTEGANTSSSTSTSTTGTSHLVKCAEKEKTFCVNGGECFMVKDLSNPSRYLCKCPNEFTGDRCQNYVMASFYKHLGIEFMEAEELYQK

B1: 4141 (other)
chain: GASSAGLGPVVRCEPCDARALAQCAPPPAVCAELVREPGCGCCLTCALSEGQPCGIYTERCGSGLRCQPSPDEARPLQALLDGRGLCVNASAVSKGHAKDSQRYKVDYESQSTDTQNFSSESKRETEYVECPPCPAPPVAGPSVFLFPPKPKDQLMISRTPEVTCVVVDVSHEDPEVKFNWYVDGVEVHNAKTKPREEQYNSTYRVVSVLTVLHQDWLNGKEYKCKVSNKGLPSSIEKTISKAKGQPREPQVYTLPPSREEMTKNQVSLTCLVKGFYPSDIAVEWESNGQPENNYKTTPPVLDSDGSFFLYSKLTVDKSRWQQGNVFSCSVMHEGLHNHYTQKSLSLSPGK
notes: Fragment of BP3; also called N-terminus plus partial linker
B2: IGFBP3-Fc-2 (Fc fusion)
chain: GASSAGLGPVVRCEPCDARALAQCAPPPAVCAELVREPGCGCCLTCALSEGQPCGIYTERCGSGLRCQPSPDEARPLQALLDGRGLCVNASAVSRPAPPAPGNASESEEDRSAGSVESPSVSSTHRVSDPKFHPKGHAKDSQRYKVDYESQSTDTQNFSSESKRETEYGPCRREMEDTLNHLKFLNVLSPRGVHIPNCDKKGFYKKKQCRPSKGRKRGFCWCVDKYGQPLPGYTTKGKEDVHCYSMQSKVECPPCPAPPVAGPSVFLFPPKPKDQLMISRTPEVTCVVVDVSHEDPEVKFNWYVDGVEVHNAKTKPREEQYNSTYRVVSVLTVLHQDWLNGKEYKCKVSNKGLPSSIEKTISKAKGQPREPQVYTLPPSREEMTKNQVSLTCLVKGFYPSDIAVEWESNGQPENNYKTTPPVLDSDGSFFLYSKLTVDKSRWQQGNVFSCSVMHEGLHNHYTQKSLSLSPGK
notes: IGFBP3 with IGFBP3 linker deletion 2, fused to Fc; dimeric; also called 3(del2)3; 3(del2)3Fc
B3: 4382 (other)
chain: GASSAVNASAVSRLRAYLLPAPPAPGNASESEEDRSAGSVESPSVSSTHRVSDPKFHPLHSKIIIIKKGHAKDSQRYKVDYESQSTDTQNFSSESKREVECPPCPAPPVAGPSVFLFPPKPKDQLMISRTPEVTCVVVDVSHEDPEVKFNWYVDGVEVHNAKTKPREEQYNSTYRVVSVLTVLHQDWLNGKEYKCKVSNKGLPSSIEKTISKAKGQPREPQVYTLPPSREEMTKNQVSLTCLVKGFYPSDIAVEWESNGQPENNYKTTPPVLDSDGSFFLYSKLTVDKSRWQQGNVFSCSVMHEGLHNHYTQKSLSLSPGK
notes: Fragment of BP3; also called ligand 4382; linker region alone
B4: 4142 (other)
chain: GASSAGLGPVVRCEPCDARALAQCAPPPAVCAELVREPGCGCCLTCALSEGQPCGIYTERCGSGLRCQPSPDEARPLQALLDGRGLCVNASAVSVECPPCPAPPVAGPSVFLFPPKPKDQLMISRTPEVTCVVVDVSHEDPEVKFNWYVDGVEVHNAKTKPREEQYNSTYRVVSVLTVLHQDWLNGKEYKCKVSNKGLPSSIEKTISKAKGQPREPQVYTLPPSREEMTKNQVSLTCLVKGFYPSDIAVEWESNGQPENNYKTTPPVLDSDGSFFLYSKLTVDKSRWQQGNVFSCSVMHEGLHNHYTQKSLSLSPGK
notes: Fragment of BP3; also called ligand 4142; N-terminus only
B5: IGFBP3-GS16-VEGF-Fc (Fc fusion)
chain: GASSAGLGPVVRCEPCDARALAQCAPPPAVCAELVREPGCGCCLTCALSEGQPCGIYTERCGSGLRCQPSPDEARPLQALLDGRGLCVNASAVSKGHAKDSQRYKVDYESQSTDTQNFSSESKRETEYGPCRREMEDTLNHLKFLNVLSPRGVHIPNCDKKGFYKKKQCRPSKGRKRGFCWCVDKYGQPLPGYTTKGKEDVHCYSMQSKGGGGSGGGGSGGGGSGIYIFISDTGRPFVEMYSEIPEIIHMTEGRELVIPCRVTSPNITVTLKKFPLDTLIPDGKRIIWDSRKGFIISNATYKEIGLLTCEATVNGHLYKTNYLTHRQGYRIYDVVLSPSHGIELSVGEKLVLNCTARTELNVGIDFNWEYPSSKHQHKKLVNRDLKTQSGSEMKKFLSTLTIDGVTRSDQGLYTCAASSGLMTKKNSTFVRVHEKVECPPCPAPPVAGPSVFLFPPKPKDQLMISRTPEVTCVVVDVSHEDPEVKFNWYVDGVEVHNAKTKPREEQYNSTYRVVSVLTVLHQDWLNGKEYKCKVSNKGLPSSIEKTISKAKGQPREPQVYTLPPSREEMTKNQVSLTCLVKGFYPSDIAVEWESNGQPENNYKTTPPVLDSDGSFFLYSKLTVDKSRWQQGNVFSCSVMHEGLHNHYTQKSLSLSPGK
notes: IGFBP3 with linker deletion 1 - GS 16 linker - v1v2 - Fc; dimeric; also called Chimera B; 3-t3-3-GS16-V1V2
B6: VEGF-B (ligand, UniProt P49765-2 22-188, looked up)
chain: PVSQPDAPGHQRKVVSWIDVYTRATCQPREVVVPLTVELMGTVAKQLVPSCVTVQRCGGCCPDDGLECVPTGQHQVRMQILMIRYPSSQLGEMSLEEHSQCECRPKKKDSAVKPDSPRPLCPRCTQHHQRPDPRTCRCRCRRRSFLRCQGRGLELNPDTCRCRKLRR
B7: Rantes (ligand, UniProt P13501 24-91, looked up)
chain: SPYSSDTTPCCFAYIARPLPRAHIKEYFYTSGKCSNPAVVFVTRKNRQVCANPEKKWVREYINSLEMS
notes: The excerpts show no construct or source

The target of experiment [1] is T2, IGF-1 (UniProt P05019 49-118).
T2 construct: Biotinylated IGF-1 is written as the same molecule; also called biotinylated IGF-1; IGF-1-bio
Description: binding test, fragment as ligand, growth factor in 0.65 M NaCl.

The target in a further experiment is IGF-2 (UniProt P01344 25-91). The experiment is described as above.
For experiment [2], the target named is T3, bFGF (UniProt P09038 143-288, limits assumed).
T3 construct: also called basic fibroblast growth factor
The experiment is described as above.

In the experiment “VEGF-B” the target is B6. Described as above.
A further experiment addresses T4, PDGF AB (UniProt P04085 87-211; P01127 82-190, limits assumed).
T4 construct: Heterodimer by its name
The experiment is described as above.

The target of experiment [3] is T2, IGF-1. Description: Biacore SPR; experiment 4-79. As to the method: (§1) Biacore binding was performed at David Myszka's laboratory at the University of Utah or at the Genomic Research Center at Academia Sinica. Surfaces of binding protein chimera were made via chemical immobilization on a CM4 chip using standard amine coupling chemistry. […] Excess surface carboxyl activated sites on all four flow cells was blocked using the doubly positively charged species ethylenediamine. Binding experiments (but not immobilizations) in HBS-P (10 mM HEPES pH 7.4, 150 mM NaCl, 0.05% P20), The HBS-P was supplemented with BSA at 0.2 mg/mL, or HBS-P was supplemented with 500 mM NaCl (650 mM NaCl, final concentration). Analytes were also reconstituted in the corresponding buffer. All experiments were performed at 25° C. 1/150 dilutions of phosphoric acid were used to regenerate IGFBP3-Fc surfaces and a sequence of 3 M MgCl₂ followed by 5 M GuCl was used to regenerate surfaces immobilized with growth factor. Dissociation constants reported below used immobilized binding protein unless noted. Differences between binding constants may be expected between growth factor immobilization and chimera immobilization.

The target in experiment [4] is T3, bFGF. Nature of the experiment: Biacore SPR, immobilised bFGF; experiment 4-79. As to the method: as §1
In experiment [5] the target is T2, IGF-1. Nature of the experiment: biotinylated IGF-1 ELISA on Fc-captured chimera, 4 C PBS control (the reference); experiment 4-81. As to the method: (§2) Plates were coated with goat anti-human Fc antibody, blocked and then incubated with chimera as in the Fc ELISA. Biotinylated IGF-1 (GroPep) or VEGF-Biotin (R&D Systems VEGF biotinylated with sulfo-NHS-LC-biotin as per instructions (Pierce) was added for 2 hours followed by streptavidin-HRP (Jackson Immunoresearch) for 30 minutes. Chromogenic development with tetramethyl benzidine was performed as described above.
(§3) To test the stability of the present chimeras, some purified chimeras (see, Table 4) were incubated with PBS or a conditioned medium from the MCF-7 cell line overnight at 37° C. and PBS overnight at 4° C. The IGF-1 binding and VEGF binding were measured using the biotinylated IGF-1 and VEGF.

For experiment [6], the target named is T2, IGF-1. Description: biotinylated IGF-1 ELISA on Fc-captured chimera, after overnight in PBS at 37 C, against the 4 C PBS control; experiment 4-81. As to the method:
as §2, §3

Experiment [7] has as its target T2, IGF-1. Nature of the experiment: biotinylated IGF-1 ELISA on Fc-captured chimera, after overnight in MCF-7 conditioned medium at 37 C, against the 4 C PBS control; experiment 4-81. As to the method: as §2, §3
A further experiment addresses T1, nrgbx. Nature of the experiment: binding test, fragment as ligand, growth factor in 0.65 M NaCl.
For experiment [8], the target named is T2, IGF-1. Description: biotinylated IGF-1 ELISA on Fc-captured chimera, 4 C PBS control (the reference); experiment 3-192. As to the method: as §2, §3
Experiment [9] concerns the target T2, IGF-1. Nature of the experiment: biotinylated IGF-1 ELISA on Fc-captured chimera, after overnight in PBS at 37 C, against the 4 C PBS control; experiment 3-192. As to the method:
as §2, §3

The target in experiment [10] is T2, IGF-1. Nature of the experiment: biotinylated IGF-1 ELISA on Fc-captured chimera, after overnight in MCF-7 conditioned medium at 37 C, against the 4 C PBS control; experiment 3-192. As to the method:
as §2, §3

A further experiment addresses T5, wild-type IGFBP3 (human, UniProt P17936 28-291).
T5 construct: also called human IGFBP3
Description: summary of the foregoing examples; method not given.

T4 sequence (P01127 82-190 limits assumed, chain 2 of 2, other chains not shown): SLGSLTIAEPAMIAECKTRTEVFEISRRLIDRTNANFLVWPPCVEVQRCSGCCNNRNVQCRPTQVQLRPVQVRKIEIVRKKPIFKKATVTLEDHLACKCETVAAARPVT
T2 sequence (P05019 49-118 limits assumed): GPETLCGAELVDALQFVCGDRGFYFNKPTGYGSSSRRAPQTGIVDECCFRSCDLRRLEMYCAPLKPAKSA
T3 sequence (P09038 143-288 limits assumed): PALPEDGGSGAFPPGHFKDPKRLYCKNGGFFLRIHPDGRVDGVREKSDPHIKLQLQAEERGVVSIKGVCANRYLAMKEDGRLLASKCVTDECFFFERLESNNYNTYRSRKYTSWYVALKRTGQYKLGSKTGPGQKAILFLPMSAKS
IGF-2, sequence (P01344 25-91 limits assumed): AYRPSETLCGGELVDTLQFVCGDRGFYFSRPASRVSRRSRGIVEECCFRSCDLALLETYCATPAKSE

Take B1: the binding result with IGF-1 [1], with IGF-2, with bFGF [2], in the experiment with VEGF-B and with PDGF AB was “binds” in each case.

Regarding B2, the dissociation constant Kd with IGF-1 [3] came out at 0.32 nM; with bFGF [4], 4.32 nM. Besides, the “IGF-1 binding remaining over controls” value is 100% in the experiment with IGF-1 [5], 72% in the experiment with IGF-1 [6] and 43% with IGF-1 [7].

Regarding B3, the binding result with nrgbx, in the experiment with bFGF [2], in the experiment with VEGF-B and with PDGF AB was “no binding” each time.

As to B4, the binding result in the experiment with IGF-1 [1] is given as “binds”; with IGF-2 it was “binds”; with nrgbx, “no binding”; with bFGF [2], “no binding”; in the experiment with VEGF-B, “no binding”; with PDGF AB, “no binding”.

Consider B5, for which the “IGF-1 binding remaining over controls” value was determined as 100% in the experiment with IGF-1 [8], 167% with IGF-1 [9] and 82% in the experiment with IGF-1 [10].

With B6, in the experiment with wild-type IGFBP3, the binding result is “binds”.

Take B7: the binding result with wild-type IGFBP3 was “binds”.
